# In patent US20050282743A1, “Molecular interactions in cells” (Arbor Vita Corporation, priority 2001, published 2005):
# Changes are numbered by the printed parent chain.
# T1: GST-MINT1 PDZ domain 2 (Mus musculus (Mouse)), B2RUJ5
# T1 chain: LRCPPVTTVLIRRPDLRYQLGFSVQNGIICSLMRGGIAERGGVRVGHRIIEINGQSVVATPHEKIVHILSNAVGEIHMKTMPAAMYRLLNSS
# T2: GST-rat SHANK 3 PDZ domain 1 (rat), Q9JLU4
# T2 chain: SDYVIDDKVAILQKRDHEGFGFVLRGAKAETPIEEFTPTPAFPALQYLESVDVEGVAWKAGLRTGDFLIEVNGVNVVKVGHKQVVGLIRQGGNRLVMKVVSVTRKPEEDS
# T3: GST-EZRIN Binding Protein 50 PDZ domain 1 (Homo sapiens (Human)), O14745
# T3 chain: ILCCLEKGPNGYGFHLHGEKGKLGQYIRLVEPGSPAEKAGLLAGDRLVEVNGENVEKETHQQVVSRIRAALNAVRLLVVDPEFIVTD
# T4: GST-EZRIN Binding Protein 50 PDZ domain 2 (Homo sapiens (Human)), O14745
# T4 chain: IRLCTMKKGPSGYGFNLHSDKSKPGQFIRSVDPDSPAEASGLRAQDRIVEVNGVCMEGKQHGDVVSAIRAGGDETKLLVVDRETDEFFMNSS
# T5: GST-Syntrophin gamma 2 PDZ domain 1 (Homo sapiens (Human)), Q9NY99
# T5 chain: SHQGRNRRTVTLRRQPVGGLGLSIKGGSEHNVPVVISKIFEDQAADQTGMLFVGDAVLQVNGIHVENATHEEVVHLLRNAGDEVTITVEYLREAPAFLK
# T6: GST-ZO-2 PDZ domain 1 (Homo sapiens (Human)), Q9UDY2
# T6 chain: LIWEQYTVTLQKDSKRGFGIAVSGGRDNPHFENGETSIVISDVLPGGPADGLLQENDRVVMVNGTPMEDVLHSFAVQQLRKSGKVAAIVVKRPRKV
# T7: GST-Shank 1 PDZ domain 1 (Homo sapiens (Human)), Q9UPX8
# T7 chain: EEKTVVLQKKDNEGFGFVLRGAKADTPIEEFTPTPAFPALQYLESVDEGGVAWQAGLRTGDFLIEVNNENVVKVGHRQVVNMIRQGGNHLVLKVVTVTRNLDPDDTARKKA
# T8: GST-KIAA1526 PDZ domain 1 (Homo sapiens (Human)), Q9P202
# T8 chain: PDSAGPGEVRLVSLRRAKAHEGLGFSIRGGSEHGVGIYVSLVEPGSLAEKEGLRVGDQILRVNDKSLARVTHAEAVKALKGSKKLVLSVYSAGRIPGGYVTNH
# T9: GST-INADL PDZ domain 8 (Homo sapiens (Human)), Q8NI35
# T9 chain: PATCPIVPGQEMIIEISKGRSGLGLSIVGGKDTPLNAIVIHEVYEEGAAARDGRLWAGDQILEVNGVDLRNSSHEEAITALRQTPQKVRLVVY
# T10: GST-Shank 3 PDZ domain 1 (human (hypothetical, computer cloned)), Q9BYB0
# T10 chain: T2 chain with I11V, K59R, G86A, S110G
# T11: GST-PDZK1 PDZ domains 2, 3, 4, Q5T2W1
# T11 chain: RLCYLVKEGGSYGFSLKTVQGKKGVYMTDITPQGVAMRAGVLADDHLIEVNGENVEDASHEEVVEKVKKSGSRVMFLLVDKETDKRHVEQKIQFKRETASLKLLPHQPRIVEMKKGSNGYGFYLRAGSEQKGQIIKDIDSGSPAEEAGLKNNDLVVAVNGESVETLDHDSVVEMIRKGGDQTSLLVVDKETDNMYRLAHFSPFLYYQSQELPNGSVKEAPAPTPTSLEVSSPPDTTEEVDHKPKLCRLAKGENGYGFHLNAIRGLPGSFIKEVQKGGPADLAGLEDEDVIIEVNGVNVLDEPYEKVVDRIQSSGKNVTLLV
# T12: GST-APXL-1 PDZ domain 1 (Homo sapiens (Human)), Q13796
# T12 chain: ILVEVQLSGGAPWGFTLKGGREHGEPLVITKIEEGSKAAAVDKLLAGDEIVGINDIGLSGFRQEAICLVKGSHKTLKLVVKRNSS
# T13: GST-Outer Membrane PDZ domain 1 (Homo sapiens (Human)), P57105
# T13 chain: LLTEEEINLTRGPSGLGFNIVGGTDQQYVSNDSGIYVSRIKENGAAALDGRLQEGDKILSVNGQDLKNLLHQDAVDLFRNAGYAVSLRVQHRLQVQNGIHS
# T14: GST-KIAA0973 PDZ domain 1 (Homo sapiens (Human)), Q9Y2H9
# T14 chain: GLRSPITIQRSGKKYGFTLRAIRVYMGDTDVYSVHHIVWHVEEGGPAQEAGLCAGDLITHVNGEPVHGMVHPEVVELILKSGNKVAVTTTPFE
# T15: GST-MUPP1 PDZ domain 10 (Homo sapiens (Human)), O75970
# T15 chain: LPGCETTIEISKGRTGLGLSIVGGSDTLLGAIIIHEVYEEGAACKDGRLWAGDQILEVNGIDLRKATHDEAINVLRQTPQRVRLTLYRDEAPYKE
# T16: GST-FLJ 10324 PDZ domain 1 [GST: P08515]
# T16 chain: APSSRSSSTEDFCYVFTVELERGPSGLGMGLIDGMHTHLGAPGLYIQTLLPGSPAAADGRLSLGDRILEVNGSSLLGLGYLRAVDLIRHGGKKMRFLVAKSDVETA
# T17: GST-MUPP1 PDZ domain 13 (Homo sapiens (Human)), O75970
# T17 chain: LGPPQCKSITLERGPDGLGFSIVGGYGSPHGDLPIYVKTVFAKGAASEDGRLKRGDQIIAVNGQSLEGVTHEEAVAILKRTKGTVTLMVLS
# T18: GST-KIAA0807(S) PDZ domain 1 (Homo sapiens (Human)), Q6P0Q8
# T18 chain: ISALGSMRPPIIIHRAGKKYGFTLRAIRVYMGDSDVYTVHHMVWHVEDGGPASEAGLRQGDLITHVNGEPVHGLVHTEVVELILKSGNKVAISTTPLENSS
# T19: GST-PTPL1 PDZ domain 2 (Homo sapiens (Human)), Q12923
# T19 chain: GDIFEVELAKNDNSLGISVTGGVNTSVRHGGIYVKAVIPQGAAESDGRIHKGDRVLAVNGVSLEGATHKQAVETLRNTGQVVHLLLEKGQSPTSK
# T20: GST-KIAA1634 PDZ domain 2 (Homo sapiens (Human)), Q5TCQ9
# T20 chain: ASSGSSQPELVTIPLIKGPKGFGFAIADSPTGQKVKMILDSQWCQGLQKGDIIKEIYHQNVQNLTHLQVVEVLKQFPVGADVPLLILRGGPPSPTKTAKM
# T21: GST-MINT1 PDZ domains 1, 2, Q02410
# T21 chain: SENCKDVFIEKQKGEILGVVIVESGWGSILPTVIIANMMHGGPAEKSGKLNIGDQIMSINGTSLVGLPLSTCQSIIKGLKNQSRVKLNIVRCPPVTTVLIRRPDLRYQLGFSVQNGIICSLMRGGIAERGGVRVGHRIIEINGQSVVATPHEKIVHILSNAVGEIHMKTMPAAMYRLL
# T22: GST-PTPL1 PDZ domain 4 (Homo sapiens (Human)), Q12923
# T22 chain: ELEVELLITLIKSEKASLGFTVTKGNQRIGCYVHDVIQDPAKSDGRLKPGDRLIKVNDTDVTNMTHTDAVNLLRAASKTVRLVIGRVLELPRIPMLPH
# T23: GST-HEMBA 1003117 PDZ domain 1 (Homo sapiens (Human)), Q96JH8
# T23 chain: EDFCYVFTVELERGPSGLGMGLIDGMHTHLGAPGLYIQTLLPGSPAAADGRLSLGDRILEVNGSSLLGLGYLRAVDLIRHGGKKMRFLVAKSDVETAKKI
# Columns and labels:
# [1] = target: GST-PSD95 PDZ domains 1, 2, 3 (Homo sapiens), P78352; assay: G assay competition vs 20 uM biotin-CD46 20-mer; competitor 50 uM
# [2] = target: GST-PSD95 PDZ domains 1, 2, 3 (Homo sapiens), P78352; assay: G assay competition vs 10 uM biotin-KV1.3 20-mer; competitor 50 uM
# [3] = target: GST-PSD95 PDZ domains 1, 2, 3 (Homo sapiens), P78352; assay: G assay competition vs 20 uM biotin-CLASP-2 20-mer; competitor 50 uM
# [4] = target: GST-PSD95 PDZ domains 1, 2, 3 (Homo sapiens), P78352; assay: G assay competition vs 10 uM biotin-CD95 20-mer; competitor 50 uM
# [5] = target: T1, GST-MINT1 PDZ domain 2 (Mus musculus …); assay: G' assay; also: key of the grades not given here
# [6] = target: T2, GST-rat SHANK 3 PDZ domain 1 (rat), …; assay: G' assay; also: key of the grades not given here
# [7] = target: T3, GST-EZRIN Binding Protein 50 PDZ domain …; assay: G' assay; also: key of the grades not given here
# [8] = target: T4, GST-EZRIN Binding Protein 50 PDZ domain …; assay: G' assay; also: key of the grades not given here
# [9] = target: T5, GST-Syntrophin gamma 2 PDZ domain 1 …; assay: G' assay; also: key of the grades not given here
# [10] = target: T6, GST-ZO-2 PDZ domain 1 (Homo sapiens …); assay: G' assay; also: key of the grades not given here
# [11] = target: GST-KIAA807 [GST: P08515]; assay: G' assay
# [12] = target: T7, GST-Shank 1 PDZ domain 1 (Homo sapiens …); assay: G' assay
# [13] = target: T8, GST-KIAA1526 PDZ domain 1 (Homo sapiens …); assay: G' assay
# [14] = target: T9, GST-INADL PDZ domain 8 (Homo sapiens …); assay: G' assay
# [15] = target: T10, GST-Shank 3 PDZ domain 1 (human …); assay: G' assay
# [16] = target: T11, GST-PDZK1 PDZ domains 2, 3, 4, Q5T2W1; assay: G' assay
# [17] = target: T12, GST-APXL-1 PDZ domain 1 (Homo sapiens …); assay: G' assay
# [18] = target: T13, GST-Outer Membrane PDZ domain 1 (Homo …); assay: G' assay
# [19] = target: T14, GST-KIAA0973 PDZ domain 1 (Homo sapiens …); assay: G' assay
# [20] = target: T15, GST-MUPP1 PDZ domain 10 (Homo sapiens …); assay: G' assay
# [21] = target: T16, GST-FLJ 10324 PDZ domain 1 [GST: P08515]; assay: G' assay
# [22] = target: T17, GST-MUPP1 PDZ domain 13 (Homo sapiens …); assay: G' assay
# [23] = target: T18, GST-KIAA0807(S) PDZ domain 1 (Homo …); assay: G' assay
# [24] = target: GST-PIST PDZ domain 1 (Mus musculus (Mouse)), Q8BH60; assay: G' assay; also: key of the grades not given here
# [25] = target: T24, GST-BAI-1 Associated Protein PDZ domain 3 (Homo sapiens (Human)), Q96QZ7; assay: G assay titration, PDZ 0.5 ug/ml
# [26] = target: T19, GST-PTPL1 PDZ domain 2 (Homo sapiens …); assay: G assay titration, PDZ 0.5 ug/ml
# [27] = target: T24, GST-BAI-1 Associated Protein PDZ domain …; assay: G' assay
# [28] = target: GST-KIAA0316 PDZ domain 1 (Homo sapiens (Human)), Q14CM0; assay: G' assay; also: key of the grades not given here
# [29] = target: T20, GST-KIAA1634 PDZ domain 2 (Homo sapiens …); assay: G' assay
# [30] = target: T19, GST-PTPL1 PDZ domain 2 (Homo sapiens …); assay: G' assay
# [31] = target: T21, GST-MINT1 PDZ domains 1, 2, Q02410; assay: G' assay
# [32] = target: T22, GST-PTPL1 PDZ domain 4 (Homo sapiens …); assay: G' assay
# [33] = target: T23, GST-HEMBA 1003117 PDZ domain 1 (Homo …); assay: G' assay
# Sequence of GST-PSD95 PDZ domains 1, 2, 3 (Homo sapiens), P78352 (P78352 62-395): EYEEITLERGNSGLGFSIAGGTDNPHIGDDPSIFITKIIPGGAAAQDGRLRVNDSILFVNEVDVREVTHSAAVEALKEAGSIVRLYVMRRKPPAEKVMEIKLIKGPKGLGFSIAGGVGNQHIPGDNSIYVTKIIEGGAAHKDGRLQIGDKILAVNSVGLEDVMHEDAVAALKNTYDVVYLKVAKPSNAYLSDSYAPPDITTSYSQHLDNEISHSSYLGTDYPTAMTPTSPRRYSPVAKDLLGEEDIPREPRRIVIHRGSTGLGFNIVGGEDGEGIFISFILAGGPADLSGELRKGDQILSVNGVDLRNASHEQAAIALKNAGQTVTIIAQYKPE
# Sequence of GST-KIAA807 [GST: P08515] (P08515 whole entry, the tested form may be a part): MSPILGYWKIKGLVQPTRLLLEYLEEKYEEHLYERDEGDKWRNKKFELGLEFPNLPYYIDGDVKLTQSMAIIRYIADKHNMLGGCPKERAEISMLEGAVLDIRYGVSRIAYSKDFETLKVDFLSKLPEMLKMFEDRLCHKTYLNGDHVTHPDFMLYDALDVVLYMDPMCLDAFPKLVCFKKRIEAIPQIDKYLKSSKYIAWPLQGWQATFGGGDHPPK
# T24 sequence (Q96QZ7 other isoform, or with tags, fused parts or gaps): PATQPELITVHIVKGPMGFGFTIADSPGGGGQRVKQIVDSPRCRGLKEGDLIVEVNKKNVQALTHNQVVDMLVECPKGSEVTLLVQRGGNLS
# Sequence of GST-KIAA0316 PDZ domain 1 (Homo sapiens (Human)), Q14CM0 (Q14CM0 72-159): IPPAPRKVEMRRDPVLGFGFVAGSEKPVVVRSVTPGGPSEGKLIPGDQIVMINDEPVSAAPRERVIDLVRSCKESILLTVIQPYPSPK
binder,measurement,setting,value
RNEIQSLV (modifications not checked) [unlabeled 8 amino acid peptide corresponding to the C-terminus of CD95],% binding of labelled 20-mer,[1],100%
same,% binding of labelled 20-mer,[2],87%
same,% binding of labelled 20-mer,[3],92%
same,% binding of labelled 20-mer,[4],75%
MTSSSSVV (modifications not checked) [CLASP-2 8-mer],% binding of labelled 20-mer,[1],90%
same,% binding of labelled 20-mer,[2],82%
same,% binding of labelled 20-mer,[3],85%
same,% binding of labelled 20-mer,[4],80%
PPATPSPRLALPAHHNATRL (modifications not checked) [Na+/Pi cotransporter 2],Classification,[5],1 A450 class
same,Classification,[6],4 A450 class
same,Classification,[7],5 A450 class
same,Classification,[8],2 A450 class
same,Classification,[9],1 A450 class
same,Classification,[10],1 A450 class
same,Classification,[11],5 A450 class
same,Classification,[12],5 A450 class
same,Classification,[13],1 A450 class
same,Classification,[14],1 A450 class
same,Classification,[15],5 A450 class
same,Classification,[16],1 A450 class
same,Classification,[17],1 A450 class
same,Classification,[18],1 A450 class
same,Classification,[19],2 A450 class
same,Classification,[20],1 A450 class
same,Classification,[21],1 A450 class
same,Classification,[22],1 A450 class
same,Classification,[23],5 A450 class
same,Classification,[24],1 A450 class
DTLLLTENEGDKTEEQVSYV (modifications not checked) [serotonin receptor 5HT-2B],Kd,[25],2000 nM
same,Kd,[26],200 nM
same,Classification,[5],1 A450 class
same,Classification,[27],4 A450 class
same,Classification,[28],1 A450 class
same,Classification,[29],5 A450 class
same,Classification,[11],1 A450 class
same,Classification,[30],5 A450 class
same,Classification,[31],1 A450 class
same,Classification,[32],2 A450 class
same,Classification,[33],1 A450 class
same,Classification,[21],2 A450 class
same,Classification,[23],1 A450 class
same,Classification,[24],1 A450 class
